Measured values taken from patent US20220249692A1 (BIOSCEPTRE AUST, published 2022).

Target: T1, E200 epitope of P2X7R
T1 peptide: GHNYTTNILPGLNITC
Assay: ELISA, antibody-conjugated liposomes on E200 epitope

binding result: binds
B1: single domain antibody (variable domain of SEQ ID NO: 7) conjugated to gemcitabine liposome nanoparticles (VHH)
VHH: EVQLLESGGGLVQPGGSLRLSCAASGFTFRNHDMGWVRQAPGKGLEWVSAISGSGGSTYYANSVKGRFTISRDNSKNTLYLQMNSLRAEDTAVYYCAEPKPMDTEFDYRSPGTLVTVSS
modifications: activated via Traut's reagent (thiolated) and conjugated to maleimide groups of Maleimido-Succinyl-PEG4000-Oleate on the liposome
notes: also called BIL03s; BIL03s-coated nanoparticles
